Results on four molecules are retold here after PMC12243196, “Division of the large and multifunctional glycoside hydrolase family 2: high functional specificity and biochemical assays in the uncharacterized subfamilies” (Biotechnology for Biofuels and Bioproducts, 2025).

One data set deals with T1, AmGH2_9 (Akkermansia muciniphila, UniProt B2UM41).
T1 construct: gene Amuc_1667
Kind of data set: activity screening, absorbance at […] nm. It counts as biochemical.

The test system of a further data set is T2, BfGH2_9.
T2 construct: gene BF638R_1918
T2 sequence (E1WVB9 30-864 limits assumed): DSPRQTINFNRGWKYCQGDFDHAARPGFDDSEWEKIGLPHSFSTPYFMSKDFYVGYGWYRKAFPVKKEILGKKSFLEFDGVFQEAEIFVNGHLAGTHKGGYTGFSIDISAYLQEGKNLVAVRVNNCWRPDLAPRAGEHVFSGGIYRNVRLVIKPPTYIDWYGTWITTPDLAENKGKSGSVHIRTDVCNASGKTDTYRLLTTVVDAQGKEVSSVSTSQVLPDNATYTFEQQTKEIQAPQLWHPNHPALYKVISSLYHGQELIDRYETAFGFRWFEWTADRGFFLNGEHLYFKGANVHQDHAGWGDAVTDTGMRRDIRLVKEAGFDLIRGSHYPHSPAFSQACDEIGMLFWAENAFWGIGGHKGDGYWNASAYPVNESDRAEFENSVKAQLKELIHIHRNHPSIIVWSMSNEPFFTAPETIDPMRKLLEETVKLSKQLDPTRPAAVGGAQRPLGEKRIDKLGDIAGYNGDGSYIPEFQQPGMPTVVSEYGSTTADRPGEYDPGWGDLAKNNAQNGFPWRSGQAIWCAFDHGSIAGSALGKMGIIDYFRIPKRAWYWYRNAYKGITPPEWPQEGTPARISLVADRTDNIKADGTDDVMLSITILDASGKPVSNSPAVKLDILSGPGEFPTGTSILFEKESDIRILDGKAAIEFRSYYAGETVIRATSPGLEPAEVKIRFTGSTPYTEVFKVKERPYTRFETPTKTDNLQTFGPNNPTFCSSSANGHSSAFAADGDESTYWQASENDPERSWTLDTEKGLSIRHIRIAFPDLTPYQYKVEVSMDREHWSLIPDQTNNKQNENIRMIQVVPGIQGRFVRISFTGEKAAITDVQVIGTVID

Substrate in the data set “purified protein”: O=[N+]([O-])c1ccc(O[C@@H]2O[C@H](CO)[C@H](O)[C@H](O)[C@H]2O)cc1
Kind of data set: purified protein.

Like-named read-outs stand apart in the source and are kept apart here.

T1 sequence (B2UM41 entry or part of it): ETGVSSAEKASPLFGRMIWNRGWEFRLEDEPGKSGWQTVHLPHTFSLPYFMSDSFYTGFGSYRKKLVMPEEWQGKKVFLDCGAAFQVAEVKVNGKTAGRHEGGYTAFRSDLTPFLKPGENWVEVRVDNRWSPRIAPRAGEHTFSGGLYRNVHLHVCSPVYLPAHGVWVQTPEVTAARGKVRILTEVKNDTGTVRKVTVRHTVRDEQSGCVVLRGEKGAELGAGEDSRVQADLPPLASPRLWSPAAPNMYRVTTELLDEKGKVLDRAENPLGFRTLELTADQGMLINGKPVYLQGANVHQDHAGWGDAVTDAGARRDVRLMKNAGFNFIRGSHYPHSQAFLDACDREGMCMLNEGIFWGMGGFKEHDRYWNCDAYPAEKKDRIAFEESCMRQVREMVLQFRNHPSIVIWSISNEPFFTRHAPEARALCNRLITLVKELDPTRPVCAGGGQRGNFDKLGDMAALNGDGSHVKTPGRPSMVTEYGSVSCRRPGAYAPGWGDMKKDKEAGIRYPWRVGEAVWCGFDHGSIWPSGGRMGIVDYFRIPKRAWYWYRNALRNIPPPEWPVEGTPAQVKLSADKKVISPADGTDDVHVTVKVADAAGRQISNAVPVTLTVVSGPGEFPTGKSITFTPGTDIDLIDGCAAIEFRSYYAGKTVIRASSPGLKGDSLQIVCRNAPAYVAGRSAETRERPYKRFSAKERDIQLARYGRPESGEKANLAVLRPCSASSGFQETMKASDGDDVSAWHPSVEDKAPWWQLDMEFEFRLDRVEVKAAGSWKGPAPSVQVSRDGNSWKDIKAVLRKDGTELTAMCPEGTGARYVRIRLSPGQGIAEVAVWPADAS

In the case of `O=[N+]([O-])c1ccccc1O[C@@H]1O[C@H](CO)[C@H](O)[C@H](O)[C@H]1O` [oNP-β-D-Galp], the “activity screening, absorbance at 405 nm” value at AmGH2_9 and with BfGH2_9 was “All the enzymes also displayed activity on oNP-β-D-Galp (data not shown)” in each case.

B1: (Ruminiclostridium cellobioparum subsp. termitidis CT1112) (protein)
chain: MNNRKQICLNGLWDFCPGNGTLDRIPRKWDKTQIKVPSPWNINTFAGPEKLTCGEEEIFLRGGEFNLYPEYPKAWENAQSGWYKTEMFIDEEWRGKVITLKFNAVLFYSEFYINGKLISTDADGFLPHEFPVQDHVKYGGSNTLVVGVKKLDAFRYKNEAGKNRIEYPTGSFWGKTMGGIWQDVYLNVYPHDHITDIFVRTDVNSNILRVDADLAADRGEDFTVGMVLREWSGDRSFKLACGLPVNGNSVEFIFDYSGIKDEIRQWWPDSPELYYIDVILHSGNEIVDVKTARFGFKSFEVRGKQFYLNGTPINLRNDSWHYMGFAYQNEEYARLWYKMARDANVNCIRLHAQVYPEFFLDMADEMGMMIVDETSIWASHCEFHYSMEFVENGKKHIKRMIERDRNHPSIIIWSVENECIMAYRVSADDGVKDENELNERLFLLAEYAGSLDPTRPVSGDGSQDMGGRLDVYSLHYPGKKGPENVNKPVTIGEMGSLYYATPDCVCNQYGEKTYLSFDGRLEAIGRELFENLKHERKWAAQVCVFNLVWYGLKPLPFKERIINYPDLSLPGVKPTRTGPYISTLNAAYDDSLPEYIPNTVFEWVRQAYLPERFFFEEGRSRYYNGEAGAKKISVFNDSFEEKEYILEWQMEQKGEILGSGNKSVLVNPAGYEELDIEFDLPAADSIERLSLRILMKFRDNIVFEDVCSIKVYNKNHIFSFMGGFGKVGILGGSRLDANEFFEKSGIETVDGLTQGIDIYLLEECTEEAAAGLTWACCSVLDLLPEKHGFKSWLSHGSAENAFLNVDDRTLMENLEEEDLSNWGNGYLCNNTFQDNLCVSAFNLFCTGKGIPLILDVKNGKARQLVSTIPLLKWAAEEPAALVLLSNLIAYAAQTGKTEAHECVLVSKKDSDMHRSFENMGIDFTLAEVKNRDQIRSLREVKLLVADGSCRLDYLDEIMPYNAEQILLCNFDEATLPDSLKGYIEVVEKPLYQLIKAGKDNALTDGIHAGDLYGLEAGQETVICKRPFLIKDDRKVKGLLKNADLNWRMWNFQGEDRKTVSILRSEQETKTPLYGLAETHINTVKVILGQIDMSYANRKLERLASRFFLQYGTYSKL
Broadly, the Km is the concentration of substrate that gives half-maximal velocity. What is called kcat is the number of substrate molecules converted per active site and unit of time at saturation. What is called kcat/Km is the turnover number divided by the Michaelis constant. B1: in “purified protein” (40.0 °C), the Michaelis-Menten constant (Km) is recorded as 40 ± 1.2 µM, the kcat is 0.0233 s⁻¹ and the kcat/Km was found to be 586 M⁻¹ s⁻¹.

B2: (Zobellia galactanivorans) (protein)
chain: QTEKVDLPGEERMLLSGNWKFHAIYGEGSNYIDISETLEDIVIDNTDKDRVSVKGDWKTRSEGERGSGFLGTDYLQRDFKSGESDQNYVRYRPELPESGFYEAFVRFPFASHLTAEVNVNHAQGITAAYFNQRNRCDQWLSLGVFSFDKTLDSYVEVTAITASTVVADAVMFRPVSKEKMEEADIEKSSVFQVDFDDSNWKDLRVPGHWGMLNAYSNYTGKGWYRKTFELPKNWKSVSNERIRLKFDAVYHIARVFLNGELVGLHQGGFTPFEFDITDKLNYNGQNVLAVEADNNALVGATWNWGGIIREVHLIKNNDVRISYQYIHADPDLKKGSANLKLKVRIKNSSTRQRTVLLAAHIEEASSPVDLTYKVKVPANSTQEIQLATTLPATDVKLWHFDTPNLYHLTTTISENGQVLDTQKDRFGIRKIELTDSQLILNGEPVRLSGFNRVSDHRYWGSSEPQYLIDKDVDLMKNAGANFMRIMHGTQNKKLMDRCDEKGILIFEEVNVRELTNPEFTPPHYPLAKQWLKEMIERDVNHPSIIGWSVGNELKDHFDYAKETIDYVKKELDPYRLVTCVSNSGWRDSATPEKDPNTLVDIIMHNLYPFQGTPDKVFKTLRAKWPDKPIFISEYGIKPMATTSLDGDIPELSEWNDHLRGKNTYVIGASLWTFNDYRSGYAATSPEENRVWGLVNTWRQKRKLYHRIQKENSPLADLKIDGIDLKNGGAKVRITPKPVNGYPVYSLKGYTLEFTMYDKQGEILFSKTHSLPHIVPGGKPTEVAIDWQRYMTGMAQIHAAVISPNGYIRHQTSISLELPEKTSILAIEKGHGTVRVHYRPVFGADTYYVAYADGKGLERKSDTSTTHSIEIKDLDPEEEYAFSVIAQNSKGKSVPSGTRTTKANADVLPPMIWDAFLSDGKLVVGYSGAPDDVEYIVKYGLRDSYFPYKNSTRTKGMTVIDFEGDDPHFVSIKKKTKTGESDWSKPIHVYTIRNKERYRN
In the case of B2, in “purified protein”, the Michaelis constant (Km) is 67 ± 8.3 µM, the kcat amounted to 0.0133 s⁻¹ and the specificity constant (kcat/Km) turned out to be 204 M⁻¹ s⁻¹.

B3: (Saccharophagus degradans 2-40) (protein)
chain: MVVNTDITQWSLTKTNANGAQTPADIIPLQQWLAVPVPGTVAQAVGDAGPQEDLEQFDWWYTAQFPLPKTGKRTYLQCDGLATLSEVWVNDQQVLYSQSMFENHKLDITDYLQADNTLAIVFKALAPHLAERRARPQWKTNLVDNQNLRWFRTSLLGRMPGWTPPVKAIGPWRDISIVSVAKFDLVECTVFSEVDEALNGKVHINLELDFIDAKLAADPQIQFLLDGKIYPITAKPIKGGGAFIDTEIAIEQPQLWWPHTHGEPYLHAYKITAIIDGEVTTLTEGKLGFKRVTAANQTNQLALEVNNNKIFCRGACWATPNITSLNASKQEYRHLLKLLVDAGANMVRIGGTMVYEHDDFYALCDELGILVWQDFMFANMDYPFADEDFSKLVAKEVRQQITRLKQTASIAVFCGNSEMQQQAAMMGMEQTQWANALFDTFITQKLEEQQLTLPYFTSSPCEGGLPFHTDAGLTHYYGVGAYKLMPDHFTVREVGFTSECLGFSHIPVTASLKQAFESPYPATHTPSWKAGIPRDNSAGWDFEDIRNFYLEKIFGVVADTLRYSDPETYFKLATIATAEMVSSVYSIWRASISNCNGALAWFYQDIVAGAGWGIVDSFARPKAAYYFLKRVWQPQQVLLINNSLNGYTLEVQNETAHTLQAQLNIVLVGLSDNIVAEHTQEITLAANSVGTHKLDTVFGRFMDATHAYKFGRQTIYAVVAELRNESGELISQAVSFPGCRRINTGAGEITGSITSDSDNESVVTLTPSVFVEYACLESKTTQFSDNYTCMLPGKTYSFKACEQIKSVHVSTLNLQKEFRVT
For the molecule B3, in “purified protein” (40.0 °C), the Km is 64 ± 12.6 µM, the kcat was determined as 0.02 s⁻¹ and the kcat/Km amounted to 306 M⁻¹ s⁻¹.
